Data from doi:10.1101/2023.05.30.542861.

How the values were obtained:
P00330 = experiment: mass photometry; settings: other: mass photometry
[1] = molecular target: Alcohol dehydrogenase from baker's yeast (baker's yeast) (UniProt P00330); experiment: cross-linking
[2] = molecular target: subunits of the human 20S proteasome (28 subunits); experiment: cross-linking

Alcohol dehydrogenase from baker's yeast
% monomers after 5 min in guanidine HCl (dMP) (P00330): ∼34 % monomers

Alcohol dehydrogenase from baker's yeast (from UniProt P00330 1-348) (enzyme)
% of total counts as dimers (25:1 DSBU:ADH) [1]: 25% | % of total counts as monomers (25:1 DSBU:ADH) [1]: 50% | % of total counts as tetramers (25:1 DSBU:ADH) [1]: 10% | % of total counts as tetramers (DSBU molar excess ≥ 100) [1]: 53% | % of total counts as trimers (25:1 DSBU:ADH) [1]: 14% | stoichiometry N [1]: 4

subunits of the human 20S proteasome (28 subunits)
% covalently stabilised 20S proteasome (25:1 DSBU:20S) [2]: 16% | % covalently stabilised 20S proteasome (400:1 DSBU:20S) [2]: 25%
